In patent US20130034559A1 (AstraZeneca / MedImmune, published 2013):

Tests used:
[1] = biological target: T1, recombinant monomeric cynomologus B7-H1 FlagHis10 extracellular domain (cynomologus); experiment: SPR (BIAcore T100), IgG captured via protein G, monomeric cynomologus B7-H1 ECD as analyte, 25 °C, 1:1 model
T1 construct: extracellular domain; also called CYNO B7H1
Experimental: The binding affinity and kinetic parameters of anti-B7-H1 antibodies in the IgG1-TM format to monomeric human and cynomologus B7-H1 were determined by surface plasmon resonance using a BIAcore T100 instrument (BIAcore, Uppsala, Sweden). In brief, experiments were performed at 25° C. using HBS-EP buffer (10 mM HEPES, 150 mM NaCl, 3 mM EDTA, 0.05% v/v surfactant P20) as running buffer. IgGs were affinity captured on the surface of a CM5 sensor chip (BIAcore) via protein G, which was amine coupled onto the CM5 surface to achieve the density of ˜500 Response Units (RU), according to the manufacturer's instructions (BIAapplications Handbook, BIAcore). Recombinant monomeric human or cynomologus B7-H1 FlagHis₁₀ extracellular domains (ECDs) were used as analytes. […] All measurements were baseline corrected by subtracting the sensorgram obtained with the control (activated-deactivated) flow cell, as well as double referenced with blank (zero analyte concentration) injections. Data were analyzed using the T-100 BIAevaluation software package and fitted to a simple 1:1 Langmuir binding model with local Rₘₐₓ and bulk refractive index set to 0. Data were calculated from at least two independent experiments. Mass transport effects were limited by keeping the level of affinity-captured IgGs below 250 RU.

[2] = biological target: T2, B7H1_T20D (human, UniProt Q9NZQ7 19-238); experiment: HTRF competition: untagged B7-H1 sample against HIS FLAG tagged human B7-H1 for labelled antibody
T2 construct: range 19-238; also called human B7-H1 extracellular domain mutant T20D
Experimental: (§1) The HTRF® competition assays measured the binding of anti-B7-H1 antibody to HIS FLAG tagged B7-H1. Titration of non tagged B7-H1 samples, prepared as described above, will compete with HIS FLAG tagged B7-H1 for binding to anti-B7-H1 antibody, leading to a reduction in assay signal. […] 10 μl of B7-H1 sample was added to a 384 well low volume assay plate (Corning 3673). […] Assay plates were incubated for 4 hours at room temperature prior to reading time resolved fluorescence at 620 nm and 665 nm emission wavelengths using an EnVision plate reader (Perkin Elmer).

[3] = biological target: T3, B7H1_R113Y (human, UniProt Q9NZQ7 19-238); experiment: as above
T3 construct: range 19-238; also called human B7-H1 extracellular domain mutant R113Y
Experimental: as §1

[4] = biological target: T4, B7H1_D122E (human, UniProt Q9NZQ7 19-238); experiment: as above
T4 construct: range 19-238; also called B7H1 D122E mutant
Experimental: as §1

[5] = biological target: T5, B7H1_F19A (human, UniProt Q9NZQ7 19-238); experiment: as above
T5 construct: range 19-238; also called human B7-H1 extracellular domain mutant F19A
Experimental: as §1

[6] = biological target: T6, B7H1_F19S (human, UniProt Q9NZQ7 19-238); experiment: as above
T6 construct: range 19-238; also called human B7-H1 extracellular domain mutant F19S
Experimental: as §1

[7] = biological target: T7, B7H1_T20A (human, UniProt Q9NZQ7 19-238); experiment: as above
T7 construct: range 19-238; also called human B7-H1 extracellular domain mutant T20A
Experimental: as §1

T2 sequence (Q9NZQ7 19-238 T20D limits assumed): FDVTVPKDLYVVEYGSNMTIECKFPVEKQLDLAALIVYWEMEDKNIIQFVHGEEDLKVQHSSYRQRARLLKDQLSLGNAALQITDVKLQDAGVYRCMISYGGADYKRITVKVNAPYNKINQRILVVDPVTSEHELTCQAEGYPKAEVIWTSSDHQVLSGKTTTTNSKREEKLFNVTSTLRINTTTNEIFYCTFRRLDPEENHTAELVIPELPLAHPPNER
T4 sequence (Q9NZQ7 19-238 D122E limits assumed): as the sequence (Q9NZQ7 19-238 T20D limits assumed) above, with D2T, D104E counted along it
T6 sequence (Q9NZQ7 19-238 F19S limits assumed): as the sequence (Q9NZQ7 19-238 T20D limits assumed) above, with F1S, D2T counted along it
T5 sequence (Q9NZQ7 19-238 F19A limits assumed): as the sequence (Q9NZQ7 19-238 T20D limits assumed) above, with F1A, D2T counted along it
T7 sequence (Q9NZQ7 19-238 T20A limits assumed): as the sequence (Q9NZQ7 19-238 T20D limits assumed) above, with D2A counted along it
T3 sequence (Q9NZQ7 19-238 R113Y limits assumed): as the sequence (Q9NZQ7 19-238 T20D limits assumed) above, with D2T, R95Y counted along it

Kd [1]: 0.835 nM | koff [1]: 0.0011 s⁻¹ | kon [1]: 1.31e+06 M⁻¹ s⁻¹ | binding result [2]: no binding | binding result [3]: no binding | binding result [4]: no binding | binding result [5]: no binding | binding result [6]: no binding | binding result [7]: no binding
B1: 2.7A4OPT (antibody, V domains shown)
VH: EVQLVESGGGLVKPGGSLRLSCAASGFTFSTYSMNWVRQAPGKGLEWVSSISSSGDYIYYADSVKGRFTISRDNAKNSLYLQMNSLRAEDTAVYYCARDLVTSMVAFDYWGQGTLVTVSS
VL: SYELTQPPSVSVSPGQTARITCSGDALPQKYVFWYQQKSGQAPVLVIYEDSKRPSGIPERFSGSSSGTMATLTISGAQVEDEADYYCYSTDRSGNHRVFGGGTKLTVL
notes: Germlined variable domains; human IgG1-TM (L234F, L235E, P331S), lambda; also called 2.7A4OPT IgG1-TM
